# B1: PRIM1 (parent)
# chain: CCSSADICPKCWTLMTMAIRIIDR
# Variants of: B1
# Assay: protein stability index of a GFP-peptide fusion (GPS, HEK-293T) (PSI 1-6); higher = more stable
# Settings: c terminus: a fixed tail appended
# 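Also: lentivirally expressed fusions sorted by FACS into six bins by GFP to DsRed ratio, PSI derived from sequencing read proportions per bin multiplied by bin number.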
row,Variant,protein stability index
1,CCSSANICPKCWTLMTMAIRIIDR,1.86
2,CCSSAPICPKCWTLMTMAIRIIDR,2.13
3,CCSSAQICPKCWTLMTMAIRIIDR,2.44
4,CCSSARICPKCWTLMTMAIRIIDR,1.51
5,CCSSASICPKCWTLMTMAIRIIDR,1.86
6,CCSSATICPKCWTLMTMAIRIIDR,2.29
7,CCSSAVICPKCWTLMTMAIRIIDR,1.47
8,CCSSAWICPKCWTLMTMAIRIIDR,2.91
9,CCSSAYICPKCWTLMTMAIRIIDR,1.58
10,CCSSADACPKCWTLMTMAIRIIDR,1.87
11,CCSSADCCPKCWTLMTMAIRIIDR,1.94
12,CCSSADDCPKCWTLMTMAIRIIDR,2.35
13,CCSSADECPKCWTLMTMAIRIIDR,2.21
14,CCSSADFCPKCWTLMTMAIRIIDR,2.63
15,CCSSADGCPKCWTLMTMAIRIIDR,1.98
16,CCSSADHCPKCWTLMTMAIRIIDR,1.91
17,CCSSADKCPKCWTLMTMAIRIIDR,2.65
18,CCSSADLCPKCWTLMTMAIRIIDR,2.56
19,CCSSADMCPKCWTLMTMAIRIIDR,1.52
20,CCSSADNCPKCWTLMTMAIRIIDR,1.69
21,CCSSADPCPKCWTLMTMAIRIIDR,2.07
22,CCSSADQCPKCWTLMTMAIRIIDR,2.05
23,CCSSADRCPKCWTLMTMAIRIIDR,1.85
24,CCSSADSCPKCWTLMTMAIRIIDR,1.72

row,Variant,protein stability index
1,CCSSADTCPKCWTLMTMAIRIIDR,1.77
2,CCSSADVCPKCWTLMTMAIRIIDR,1.88
3,CCSSADWCPKCWTLMTMAIRIIDR,2.16
4,CCSSADYCPKCWTLMTMAIRIIDR,1.57
5,CCSSADIAPKCWTLMTMAIRIIDR,3.21
6,CCSSADIIPKCWTLMTMAIRIIDR,3.3
7,CCSSADIKPKCWTLMTMAIRIIDR,2.95
8,CCSSADILPKCWTLMTMAIRIIDR,3.02
9,CCSSADINPKCWTLMTMAIRIIDR,2.83
10,CCSSADIQPKCWTLMTMAIRIIDR,1.8
11,CCSSADIRPKCWTLMTMAIRIIDR,3.94
12,CCSSADISPKCWTLMTMAIRIIDR,1.54
13,CCSSADIVPKCWTLMTMAIRIIDR,2.88
14,CCSSADICAKCWTLMTMAIRIIDR,1.53
15,CCSSADICCKCWTLMTMAIRIIDR,2.43
16,CCSSADICDKCWTLMTMAIRIIDR,1.64
17,CCSSADICEKCWTLMTMAIRIIDR,1.33
18,CCSSADICFKCWTLMTMAIRIIDR,1.59
19,CCSSADICGKCWTLMTMAIRIIDR,1.9
20,CCSSADICHKCWTLMTMAIRIIDR,2.29
21,CCSSADICIKCWTLMTMAIRIIDR,1.78
22,CCSSADICKKCWTLMTMAIRIIDR,2.69
23,CCSSADICLKCWTLMTMAIRIIDR,1.77
24,CCSSADICMKCWTLMTMAIRIIDR,1.86

row,Variant,protein stability index
1,CCSSADICNKCWTLMTMAIRIIDR,1.29
2,CCSSADICQKCWTLMTMAIRIIDR,1.67
3,CCSSADICRKCWTLMTMAIRIIDR,1.73
4,CCSSADICSKCWTLMTMAIRIIDR,1.96
5,CCSSADICTKCWTLMTMAIRIIDR,1.47
6,CCSSADICVKCWTLMTMAIRIIDR,2.27
7,CCSSADICWKCWTLMTMAIRIIDR,1.35
8,CCSSADICYKCWTLMTMAIRIIDR,1.55
9,CCSSADICPCCWTLMTMAIRIIDR,2.62
10,CCSSADICPDCWTLMTMAIRIIDR,3.36
11,CCSSADICPECWTLMTMAIRIIDR,1.56
12,CCSSADICPFCWTLMTMAIRIIDR,1.95
13,CCSSADICPHCWTLMTMAIRIIDR,2
14,CCSSADICPLCWTLMTMAIRIIDR,2.14
15,CCSSADICPMCWTLMTMAIRIIDR,1.92
16,CCSSADICPNCWTLMTMAIRIIDR,1.81
17,CCSSADICPQCWTLMTMAIRIIDR,1.98
18,CCSSADICPRCWTLMTMAIRIIDR,2.3
19,CCSSADICPTCWTLMTMAIRIIDR,2.71
20,CCSSADICPYCWTLMTMAIRIIDR,1.85
21,CCSSADICPKAWTLMTMAIRIIDR,4.39
22,CCSSADICPKDWTLMTMAIRIIDR,3.13
23,CCSSADICPKEWTLMTMAIRIIDR,3.11
24,CCSSADICPKFWTLMTMAIRIIDR,2.58

row,Variant,protein stability index
1,CCSSADICPKHWTLMTMAIRIIDR,2.43
2,CCSSADICPKIWTLMTMAIRIIDR,2.4
3,CCSSADICPKKWTLMTMAIRIIDR,1.82
4,CCSSADICPKTWTLMTMAIRIIDR,1.76
5,CCSSADICPKWWTLMTMAIRIIDR,2.84
6,CCSSADICPKCATLMTMAIRIIDR,2.29
7,CCSSADICPKCCTLMTMAIRIIDR,1.83
8,CCSSADICPKCDTLMTMAIRIIDR,1.71
9,CCSSADICPKCETLMTMAIRIIDR,2.05
10,CCSSADICPKCFTLMTMAIRIIDR,1.69
11,CCSSADICPKCGTLMTMAIRIIDR,2.2
12,CCSSADICPKCHTLMTMAIRIIDR,2.19
13,CCSSADICPKCITLMTMAIRIIDR,1.83
14,CCSSADICPKCKTLMTMAIRIIDR,2.64
15,CCSSADICPKCLTLMTMAIRIIDR,1.56
16,CCSSADICPKCMTLMTMAIRIIDR,2.02
17,CCSSADICPKCNTLMTMAIRIIDR,1.83
18,CCSSADICPKCPTLMTMAIRIIDR,1.48
19,CCSSADICPKCQTLMTMAIRIIDR,2.75
20,CCSSADICPKCRTLMTMAIRIIDR,2.56
21,CCSSADICPKCSTLMTMAIRIIDR,2.23
22,CCSSADICPKCTTLMTMAIRIIDR,1.88

# Source: the supplement of paper PMC10567573
